Measured values from publication doi:10.1101/2020.06.24.169607 (bioRxiv, 2020).

Biological target: the molecule itself
Experiment: differential scanning calorimetry

B1: PSD95-PDZ3 wild type (third PDZ domain of postsynaptic density-95 protein) (domain or fragment)
chain: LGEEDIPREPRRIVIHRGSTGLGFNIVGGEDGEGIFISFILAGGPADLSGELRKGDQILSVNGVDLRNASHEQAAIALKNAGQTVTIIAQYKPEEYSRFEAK
  stoichiometry N: 6
